Source: article PMC6502868, “Architecture of Saccharomyces cerevisiae SAGA complex” (Cell Discovery, 2019)

Key:
Tra1 = molecular target: T1, Tra1 (S. cerevisiae, UniProt P38811 1-3744); test: cross-linking; chemical cross-linking of proteins coupled with mass spectrometry (CXMS) on the purified native SAGA complex; 139 unique inter- and 184 unique intra-subunit cross-linking pairs; settings: both partners purified
T1 construct: Tra1, S. cerevisiae, largest SAGA subunit (SPT module), 3744 residues as printed; Endogenous subunit; Purification methods and any tag are in the Supplementary Materials; also called Tra1_(SAGA); lobe A; source: endogenous, in the native SAGA complex purified from fermented S. cerevisiae cells
T1 sequence (P38811 whole entry): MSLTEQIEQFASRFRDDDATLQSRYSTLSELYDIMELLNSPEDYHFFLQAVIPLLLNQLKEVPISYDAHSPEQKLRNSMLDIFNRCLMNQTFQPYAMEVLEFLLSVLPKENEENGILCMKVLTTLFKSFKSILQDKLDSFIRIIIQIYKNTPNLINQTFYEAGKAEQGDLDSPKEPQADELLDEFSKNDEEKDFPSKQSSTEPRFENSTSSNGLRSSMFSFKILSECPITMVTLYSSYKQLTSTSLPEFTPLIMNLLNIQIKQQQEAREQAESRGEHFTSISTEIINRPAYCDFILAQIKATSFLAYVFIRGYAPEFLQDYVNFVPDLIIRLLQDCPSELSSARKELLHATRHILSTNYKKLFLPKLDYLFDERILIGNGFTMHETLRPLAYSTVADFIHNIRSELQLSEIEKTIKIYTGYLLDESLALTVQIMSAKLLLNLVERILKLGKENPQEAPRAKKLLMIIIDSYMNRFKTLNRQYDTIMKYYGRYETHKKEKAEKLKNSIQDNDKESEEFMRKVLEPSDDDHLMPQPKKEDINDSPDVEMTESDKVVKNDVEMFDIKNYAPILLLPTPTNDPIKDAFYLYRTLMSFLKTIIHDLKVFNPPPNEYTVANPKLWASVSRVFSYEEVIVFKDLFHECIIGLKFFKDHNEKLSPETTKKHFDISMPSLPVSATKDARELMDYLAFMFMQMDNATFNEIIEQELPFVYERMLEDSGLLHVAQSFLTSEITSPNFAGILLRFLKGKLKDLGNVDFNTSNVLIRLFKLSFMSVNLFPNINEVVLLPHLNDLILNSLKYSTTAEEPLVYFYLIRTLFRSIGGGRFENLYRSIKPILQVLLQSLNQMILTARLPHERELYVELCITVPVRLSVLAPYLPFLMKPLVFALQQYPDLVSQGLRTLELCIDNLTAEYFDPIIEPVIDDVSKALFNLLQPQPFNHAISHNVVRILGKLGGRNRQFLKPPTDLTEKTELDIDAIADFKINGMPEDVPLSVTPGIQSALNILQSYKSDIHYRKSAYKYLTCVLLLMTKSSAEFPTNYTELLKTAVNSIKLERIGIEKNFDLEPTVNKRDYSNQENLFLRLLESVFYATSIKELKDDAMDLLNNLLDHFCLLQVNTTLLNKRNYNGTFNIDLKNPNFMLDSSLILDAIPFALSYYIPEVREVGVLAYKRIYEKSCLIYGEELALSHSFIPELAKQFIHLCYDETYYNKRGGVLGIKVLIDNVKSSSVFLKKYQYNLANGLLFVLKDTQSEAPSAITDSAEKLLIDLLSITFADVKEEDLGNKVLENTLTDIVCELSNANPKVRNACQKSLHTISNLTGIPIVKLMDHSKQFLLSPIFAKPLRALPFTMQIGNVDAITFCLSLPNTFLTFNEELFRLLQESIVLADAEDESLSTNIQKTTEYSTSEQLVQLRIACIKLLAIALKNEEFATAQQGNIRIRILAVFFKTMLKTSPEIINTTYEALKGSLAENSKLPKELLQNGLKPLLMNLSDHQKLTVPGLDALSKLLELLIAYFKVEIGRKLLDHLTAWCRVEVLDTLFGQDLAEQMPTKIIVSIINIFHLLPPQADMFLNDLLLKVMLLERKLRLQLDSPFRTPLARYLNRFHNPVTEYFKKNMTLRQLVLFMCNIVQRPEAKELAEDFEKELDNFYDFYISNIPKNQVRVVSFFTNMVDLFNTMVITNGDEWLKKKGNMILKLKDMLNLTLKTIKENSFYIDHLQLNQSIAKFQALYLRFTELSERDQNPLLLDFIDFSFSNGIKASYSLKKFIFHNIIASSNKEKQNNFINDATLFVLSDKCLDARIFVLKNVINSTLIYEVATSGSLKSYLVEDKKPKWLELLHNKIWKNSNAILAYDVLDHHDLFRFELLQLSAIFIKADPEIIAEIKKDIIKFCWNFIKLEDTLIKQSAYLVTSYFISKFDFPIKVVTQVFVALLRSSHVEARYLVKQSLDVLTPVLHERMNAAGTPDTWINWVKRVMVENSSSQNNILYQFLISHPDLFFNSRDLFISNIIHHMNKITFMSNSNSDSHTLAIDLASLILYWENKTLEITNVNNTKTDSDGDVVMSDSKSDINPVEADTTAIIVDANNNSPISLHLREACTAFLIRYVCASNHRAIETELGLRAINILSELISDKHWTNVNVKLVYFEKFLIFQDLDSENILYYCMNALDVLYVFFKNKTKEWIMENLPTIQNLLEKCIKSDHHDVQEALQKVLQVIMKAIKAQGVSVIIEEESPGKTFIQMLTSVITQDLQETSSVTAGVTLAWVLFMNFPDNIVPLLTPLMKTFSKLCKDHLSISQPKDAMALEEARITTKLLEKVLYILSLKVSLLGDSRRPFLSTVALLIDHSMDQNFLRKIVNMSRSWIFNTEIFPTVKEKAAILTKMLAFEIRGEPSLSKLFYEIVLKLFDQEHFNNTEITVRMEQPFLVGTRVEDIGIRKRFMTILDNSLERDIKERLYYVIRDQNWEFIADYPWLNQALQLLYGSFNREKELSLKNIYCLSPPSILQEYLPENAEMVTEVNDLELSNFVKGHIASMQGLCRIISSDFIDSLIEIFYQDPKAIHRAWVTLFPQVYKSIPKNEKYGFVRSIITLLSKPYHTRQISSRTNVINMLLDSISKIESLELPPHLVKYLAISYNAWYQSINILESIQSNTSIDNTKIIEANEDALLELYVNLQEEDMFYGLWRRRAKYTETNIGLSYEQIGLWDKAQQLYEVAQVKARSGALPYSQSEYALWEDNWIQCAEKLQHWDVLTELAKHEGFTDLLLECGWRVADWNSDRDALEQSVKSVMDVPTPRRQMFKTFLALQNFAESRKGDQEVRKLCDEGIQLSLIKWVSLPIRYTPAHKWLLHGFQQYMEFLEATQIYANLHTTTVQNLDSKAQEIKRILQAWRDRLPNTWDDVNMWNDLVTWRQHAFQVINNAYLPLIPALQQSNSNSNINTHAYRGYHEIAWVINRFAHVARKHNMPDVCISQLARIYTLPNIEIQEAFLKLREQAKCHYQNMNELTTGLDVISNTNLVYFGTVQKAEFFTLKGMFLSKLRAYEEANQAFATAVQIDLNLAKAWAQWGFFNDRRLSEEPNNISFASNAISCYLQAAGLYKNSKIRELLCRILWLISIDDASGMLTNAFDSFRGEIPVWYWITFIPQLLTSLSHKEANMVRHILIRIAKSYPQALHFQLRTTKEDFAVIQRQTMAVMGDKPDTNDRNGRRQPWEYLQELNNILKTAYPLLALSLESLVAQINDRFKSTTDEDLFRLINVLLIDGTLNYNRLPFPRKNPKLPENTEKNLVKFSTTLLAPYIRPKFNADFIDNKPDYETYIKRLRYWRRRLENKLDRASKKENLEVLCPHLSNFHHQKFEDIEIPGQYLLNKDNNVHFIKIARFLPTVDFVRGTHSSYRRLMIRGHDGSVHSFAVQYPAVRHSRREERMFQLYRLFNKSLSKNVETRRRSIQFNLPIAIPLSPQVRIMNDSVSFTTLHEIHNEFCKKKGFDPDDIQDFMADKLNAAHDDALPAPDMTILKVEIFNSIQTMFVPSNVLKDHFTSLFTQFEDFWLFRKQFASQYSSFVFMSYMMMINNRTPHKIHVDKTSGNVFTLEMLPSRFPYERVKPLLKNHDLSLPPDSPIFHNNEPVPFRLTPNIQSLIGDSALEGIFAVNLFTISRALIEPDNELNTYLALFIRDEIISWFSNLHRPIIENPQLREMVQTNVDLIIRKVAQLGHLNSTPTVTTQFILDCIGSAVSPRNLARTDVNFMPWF

Spt7 = molecular target: T2, Spt7 (S. cerevisiae, UniProt P35177 1-1332); test: as above; settings: both partners purified
T2 construct: Spt7, S. cerevisiae, second largest SAGA subunit (SPT module); source: endogenous, in the native SAGA complex purified from fermented S. cerevisiae cells
T2 sequence (looked up): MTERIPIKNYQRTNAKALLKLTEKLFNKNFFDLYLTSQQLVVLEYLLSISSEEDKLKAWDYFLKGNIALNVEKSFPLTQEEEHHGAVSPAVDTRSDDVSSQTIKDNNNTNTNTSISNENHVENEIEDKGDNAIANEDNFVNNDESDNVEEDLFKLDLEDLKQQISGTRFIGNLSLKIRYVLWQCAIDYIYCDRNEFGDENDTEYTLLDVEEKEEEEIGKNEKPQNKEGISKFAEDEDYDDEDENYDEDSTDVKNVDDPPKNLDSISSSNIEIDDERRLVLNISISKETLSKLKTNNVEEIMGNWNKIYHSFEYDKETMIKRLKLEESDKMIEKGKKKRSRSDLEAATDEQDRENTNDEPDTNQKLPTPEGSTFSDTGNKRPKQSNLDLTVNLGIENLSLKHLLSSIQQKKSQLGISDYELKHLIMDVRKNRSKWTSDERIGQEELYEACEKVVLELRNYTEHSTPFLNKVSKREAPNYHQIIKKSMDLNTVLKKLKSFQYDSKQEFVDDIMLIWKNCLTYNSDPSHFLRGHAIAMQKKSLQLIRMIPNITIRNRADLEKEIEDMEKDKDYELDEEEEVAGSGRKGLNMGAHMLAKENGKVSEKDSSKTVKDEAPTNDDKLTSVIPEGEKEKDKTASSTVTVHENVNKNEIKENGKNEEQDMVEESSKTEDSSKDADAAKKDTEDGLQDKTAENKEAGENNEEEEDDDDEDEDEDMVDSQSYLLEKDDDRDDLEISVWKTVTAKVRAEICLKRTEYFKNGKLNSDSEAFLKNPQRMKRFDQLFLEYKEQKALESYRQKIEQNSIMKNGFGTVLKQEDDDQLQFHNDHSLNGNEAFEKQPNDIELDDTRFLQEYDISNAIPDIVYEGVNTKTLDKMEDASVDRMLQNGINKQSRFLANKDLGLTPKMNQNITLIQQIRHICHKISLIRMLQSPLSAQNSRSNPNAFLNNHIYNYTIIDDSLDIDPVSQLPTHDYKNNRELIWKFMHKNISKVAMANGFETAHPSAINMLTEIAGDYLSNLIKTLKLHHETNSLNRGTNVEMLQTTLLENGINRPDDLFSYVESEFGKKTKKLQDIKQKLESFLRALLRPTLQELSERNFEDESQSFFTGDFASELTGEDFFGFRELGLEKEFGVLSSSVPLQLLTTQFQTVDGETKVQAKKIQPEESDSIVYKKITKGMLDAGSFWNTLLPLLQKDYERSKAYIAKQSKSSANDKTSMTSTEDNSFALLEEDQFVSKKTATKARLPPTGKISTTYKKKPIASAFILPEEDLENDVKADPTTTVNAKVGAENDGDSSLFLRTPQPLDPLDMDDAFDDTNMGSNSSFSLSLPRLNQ

B1: Taf12 (natural protein, S. cerevisiae, UniProt Q03761 1-539, looked up)
chain: MSSNPENSGVNANNNTGTGNADAITGAQQNMVLQPRQLQEMAAKFRTLLTEARNVGETTPRGKELMFQAAKIKQVYDALTLNRRRQQAAQAYNNTSNSNSSNPASIPTENVPNSSQQQQQQQQQTRNNSNKFSNMIKQVLTPEENQEYEKLWQNFQVRHTSIKEKETYLKQNIDRLEQEINKQTDEGPKQQLQEKKIELLNDWKVLKIEYTKLFNNYQNSKKTFYVECARHNPALHKFLQESTQQQRVQQQRVQQQQQQQQQQQQQQQQQQQQQQQRQGQNQRKISSSNSTEIPSVTGPDALKSQQQQQNTITATNNPRGNVNTSQTEQSKAKVTNVNATASMLNNISSSKSAIFKQTEPAIPISENISTKTPAPVAYRSNRPTITGGSAMNASALNTPATTKLPPYEMDTQRVMSKRKLRELVKTVGIDEGDGETVIDGDVEELLLDLADDFVTNVTAFSCRLAKHRKSDNLEARDIQLHLERNWNIRIPGYSADEIRSTRKWNPSQNYNQKLQSITSDKVAAAKNNGNNVASLNTKK
notes: Taf12, S. cerevisiae, SAGA subunit (TAF module); source: endogenous, in the native SAGA complex purified from fermented S. cerevisiae cells
B1: binds (Tra1); binds (Spt7).

B2: Spt3 (natural protein, S. cerevisiae, UniProt P06844 1-337, looked up)
chain: MMDKHKYRVEIQQMMFVSGEINDPPVETTSLIEDIVRGQVIEILLQSNKTAHLRGSRSILPEDVIFLIRHDKAKVNRLRTYLSWKDLRKNAKDQDASAGVASGTGNPGAGGEDDLKKAGGGEKDEKDGGNMMKVKKSQIKLPWELQFMFNEHPLENNDDNDDMDEDEREANIVTLKRLKMADDRTRNMTKEEYVHWSDCRQASFTFRKNKRFKDWSGISQLTEGKPHDDVIDILGFLTFEIVCSLTETALKIKQREQVLQTQKDKSQQSSQDNTNFEFASSTLHRKKRLFDGPENVINPLKPRHIEEAWRVLQTIDMRHRALTNFKGGRLSSKPIIM
notes: Spt3, S. cerevisiae, SAGA subunit (SPT module); source: endogenous, in the native SAGA complex purified from fermented S. cerevisiae cells
B2: binds (Tra1); binds (Spt7).
